The target of experiment [1] is T1, human PVRIG-his protein (human, UniProt Q6DKI7 41-171).
T1 construct: also called PVRIG-his antigen; human PVRIG protein; not shown: his tag
T1 sequence: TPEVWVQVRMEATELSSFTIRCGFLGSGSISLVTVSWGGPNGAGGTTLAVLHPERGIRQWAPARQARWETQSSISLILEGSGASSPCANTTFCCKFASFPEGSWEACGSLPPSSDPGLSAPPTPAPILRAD
In words: BLI (ForteBio), IgG on AHQ sensor, 100 nM PVRIG-his in solution, monovalent, 1:1 model. How it is done: (§1) Biofilm layer optical interference technology (ForteBio) was used to determine the binding and dissociation rate constant (KD) values of the antibodies and their variants or Fab fragments obtained in Example 1 to human, cynomolgus monkey and mouse PVRIG. ForteBio affinity measurement was performed according to existing methods (Este, P et al., High throughput solution-based measurement of antibody-antigen affinity and epitope binning. Mabs, 2013.5 (2): p270-8).
The antibody-loaded sensor was incubated in 100 nM PVRIG-his antigen to the plateau phase, and then the sensor was transferred to an analysis buffer and incubated for at least 2 minutes for measuring dissociation rate. The kinetic analysis was performed using a 1:1 binding model.

The target of experiment [2] is T2, mouse PVRIG-Fc protein (mouse).
T2 construct: not shown: Fc part
T2 chain: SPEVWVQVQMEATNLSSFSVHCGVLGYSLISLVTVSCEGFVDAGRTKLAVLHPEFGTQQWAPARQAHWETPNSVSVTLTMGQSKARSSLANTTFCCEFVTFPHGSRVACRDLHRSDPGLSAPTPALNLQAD
In words: BLI (ForteBio), IgG on AHQ sensor, 100 nM PVRIG-Fc in solution, bivalent, 1:1 model. How it is done: as §1
(§2) The antibody-loaded sensor was continued to be loaded in a high concentration of irrelevant intact antibody for 10 min, saturating the Fc-binding site on the AHQ sensor. The saturated sensor was incubated in 100 nM PVRIG-Fc antigens to the plateau phase, and then the sensor was transferred to an analysis buffer and incubated for at least 2 minutes for measuring dissociation rate. The kinetic analysis was performed using a 1:1 binding model.
On the technique in general: In BLI a coated tip is dipped into the sample, and binding shifts an interference pattern.

In experiment [3] the target is T3, cynomolgus monkey PVRIG-Fc protein (cynomolgus monkey, UniProt Q6DKI7 41-171 (human entry), limits assumed).
T3 construct: also called cynomolgus PVRIG-Fc protein; not shown: Fc part
T3 chain: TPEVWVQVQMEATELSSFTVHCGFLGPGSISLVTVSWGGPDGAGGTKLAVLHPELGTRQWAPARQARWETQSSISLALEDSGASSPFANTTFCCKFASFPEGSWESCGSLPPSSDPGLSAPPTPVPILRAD
Described as above. On the procedure: as §1, §2

For experiment [4], the target named is T4, human PVRIG-Fc protein (human, UniProt Q6DKI7 41-171).
T4 construct: also called PVRIG-Fc antigen (human); not shown: Fc part
T4 sequence: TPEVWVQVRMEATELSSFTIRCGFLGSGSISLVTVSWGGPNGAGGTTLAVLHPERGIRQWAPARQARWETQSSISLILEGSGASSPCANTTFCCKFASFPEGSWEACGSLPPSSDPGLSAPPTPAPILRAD
In words: BLI (ForteBio), PVRIG-Fc on AHQ sensor, 100 nM Fab in solution, monovalent, 1:1 model. On the procedure:
as §1
(§3) The antigen-loaded sensor was incubated in 100 nM Fab solution to the plateau phase, and then the sensor was transferred to an analysis buffer and incubated for at least 2 minutes for measuring dissociation rate. The kinetic analysis was performed using a 1:1 binding model.

The target in experiment [5] is T3, cynomolgus monkey PVRIG-Fc protein. The experiment is described as above. On the procedure: as §1, §3
In experiment [6] the target is T2, mouse PVRIG-Fc protein. In words: BLI (ForteBio), IgG on AHQ sensor, 100 nM PVRIG-Fc in solution, bivalent.
Experiment [7] addresses T5, human PVRIG protein with mouse IgG2a Fc tag (human, UniProt Q6DKI7 41-171, limits assumed).
T5 construct: not shown: mouse IgG2a Fc tag
T5 sequence (looked up): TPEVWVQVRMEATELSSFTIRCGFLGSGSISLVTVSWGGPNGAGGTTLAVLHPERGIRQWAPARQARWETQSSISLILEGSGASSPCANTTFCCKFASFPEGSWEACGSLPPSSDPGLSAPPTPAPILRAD
Description: flow cytometry competition: human PVRIG-mouse IgG2a Fc (1 ug/mL) binding to CHO-huCD112 cells. How it is done: Specifically, CHO cells overexpressing human CD112 (CHO-huCD112 cells) were generated by transfection of the pCHO1.0 vector (purchased from Invitrogen) with cDNA encoding human CD112 cloned into the multiple cloning site (MCS), followed by pressure screening. The CHO-huCD112 cells were expanded and adjusted to a cell density of 2×10^6 cells/mL, added to a 96-well flow plate at 100 μL/well, and centrifuged for later use. The purified monoclonal antibody was gradiently diluted with PBS and the diluted sample was added to a 96-well flow plate at 60 μL/well. […] The above incubated samples were added at 100 μL/well to the 96-well flow plate containing CHO-huCD112 cells, incubated at 4° C. for 30 min and washed twice with PBS. APC-conjugated goat anti-mouse IgG antibody diluted 100-fold with PBS was added at 100 μL/well, incubated at 4° C. for 30 minutes and washed twice with PBS. Cells were resuspended with PBS at 100 μL/well, and detected on a CytoFlex flow cytometer, and the corresponding MFI was calculated.
A general note: Flow cytometry measures light scatter and fluorescence of single cells or particles in a stream.

Experiment [8] has as its target T6, cynomolgus PVRIG overexpressed on CHO cells (cynomolgus, UniProt A0A2K5WVV8 1-322).
T6 construct: whole, on cells; also called CHO-cynoPVRIG cells
T6 sequence: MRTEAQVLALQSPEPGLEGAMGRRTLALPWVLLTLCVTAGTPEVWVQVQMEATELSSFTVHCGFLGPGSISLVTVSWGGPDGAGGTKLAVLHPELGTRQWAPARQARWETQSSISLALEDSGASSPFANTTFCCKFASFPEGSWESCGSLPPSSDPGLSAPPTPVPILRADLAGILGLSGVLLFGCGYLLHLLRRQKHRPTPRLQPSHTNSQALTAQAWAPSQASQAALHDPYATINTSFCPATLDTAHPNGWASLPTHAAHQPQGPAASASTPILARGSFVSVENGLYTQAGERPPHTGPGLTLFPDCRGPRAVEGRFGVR
Description: flow cytometry on CHO-cynoPVRIG cells. How it is done:
(§4) The overexpressing cells were expanded and adjusted to an appropriate cell density, and added to a 96-well flow cytometry plate. After centrifugation, the cells were added with a gradiently diluted sample to be tested, and incubated at 4° C. for 30 minutes. The cells were washed twice with PBS, and added with a fluorescent secondary antibody correspondingly diluted to an appropriate concentration, then incubated at 4° C. for 30 minutes, and washed twice with PBS. Cells were resuspended with PBS, and detected on a CytoFlex flow cytometer, and the corresponding MFI was calculated. Graphpad software was used for graphical analysis to obtain EC50 values.

Experiment [9] addresses T7, human PVRIG on the cell surface (human, UniProt Q6DKI7 41-326).
T7 construct: whole, on cells; also called CHO-huPVRIG cells; human PVRIG protein overexpressed on the surface of CHO cells
T7 sequence (looked up): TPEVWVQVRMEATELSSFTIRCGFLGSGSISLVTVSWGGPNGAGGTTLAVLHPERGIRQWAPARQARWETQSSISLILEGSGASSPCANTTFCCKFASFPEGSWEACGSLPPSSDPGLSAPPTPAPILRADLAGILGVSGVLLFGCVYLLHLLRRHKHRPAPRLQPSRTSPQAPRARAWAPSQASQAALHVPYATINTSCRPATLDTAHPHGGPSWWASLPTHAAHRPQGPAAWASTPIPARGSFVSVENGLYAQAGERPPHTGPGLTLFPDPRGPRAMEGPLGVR
In words: flow cytometry on CHO-huPVRIG cells. How it is done:
as §4

B1: ADI-56127 (antibody, V domains shown)
VH: QVQLVQSGAEVKKPGSSVKVSCKASGGTESVDAISWVRQAPGQGLEWMGDIIPFFDTDYAQKFQGRVTITADESTSTAYMELSSLRSEDTAVYYCAREGGTSWTHFFDLWGRGTLVTVSS
VL: not shown
notes: Full-length IgG secreted by yeast and purified on Protein A
In the case of B1, the Kd came to 364 pM in experiment [1], 1660 pM in experiment [2] and 181 pM in [3].

B2: ADI-56249 (antibody, V domains shown)
VH: QVQLVQSGAEVKKPGSSVKVSCKASGGTFSTFAISWVRQAPGQGLEWMGDIIPIFGSNYAQKFQGRVTITADESTSTAYMELSSLRSEDTAVYYCARGPLEGKVSPFDIWGQGTMVTVSS
VL: DIVMTQSPLSLPVTPGEPASISCRSSQSLLHSTGYNYLDWYLQKPGQSPQLLIYVGSTRASGVPDRFSGSGSGTDFTLKISRVEAEDVGVYYCMQERQFPITFGGGTKVEIK
notes: as for B1
As to B2, the figures for the Kd in experiment [1], in [2] and in [3] were 872 pM, 2620 pM and 244 pM, respectively.

B3: ADI-56249 Fab fragment (Fab, V domains shown)
VH: QVQLVQSGAEVKKPGSSVKVSCKASGGTFSTFAISWVRQAPGQGLEWMGDIIPIFGSNYAQKFQGRVTITADESTSTAYMELSSLRSEDTAVYYCARGPLEGKVSPFDIWGQGTMVTVSS
VL: DIVMTQSPLSLPVTPGEPASISCRSSQSLLHSTGYNYLDWYLQKPGQSPQLLIYVGSTRASGVPDRFSGSGSGTDFTLKISRVEAEDVGVYYCMQERQFPITFGGGTKVEIK
notes: Fab made by papain digestion of the yeast full-length IgG, purified with Kappa Select
In the case of B3, the Kd in experiment [4] was found to be 263 pM; in experiment [5] it was 21200 pM.

B4: ADI-56204 Fab fragment (Fab, V domains shown)
VH: QVQLVQSGAEVKKPGASVKVSCKASGYTFTHYGIYWVRQAPGQGLEWMGHIYAYSGDTDYAQKLQGRVTMTTDTSTSTAYMELRSLRSDDTAVYYCARGSPTYEHFNWFDPWGQGTLVTVSS
VL: DIQMTQSPSSLSASVGDRVTITCQASDDISDYLNWYQQKPGKAPKLLIYDASSLHTGVPSRFSGSGSGTDFTFTISSLQPEDIATYYCQQYGNLPITFGGGTKVEIK
notes: as for B3
In the case of B4, the Kd worked out at 383 pM in experiment [4] and 14800 pM in experiment [5].

B5: ADI-56204 (antibody, V domains shown)
VH: QVQLVQSGAEVKKPGASVKVSCKASGYTFTHYGIYWVRQAPGQGLEWMGHIYAYSGDTDYAQKLQGRVTMTTDTSTSTAYMELRSLRSDDTAVYYCARGSPTYEHFNWFDPWGQGTLVTVSS
VL: DIQMTQSPSSLSASVGDRVTITCQASDDISDYLNWYQQKPGKAPKLLIYDASSLHTGVPSRFSGSGSGTDFTFTISSLQPEDIATYYCQQYGNLPITFGGGTKVEIK
notes: as for B1
Consider B5, for which the binding result in experiment [6] is listed as “no binding (tested: 100 nM)”. Also, the Kd was found to be 425 pM in [1] and 197 pM in [3].

B6: ADI-56145 (antibody, V domains shown)
VH: QVQLVQSGAEVKKPGASVKVSCKASGYTFTSYGISWVRQAPGQGLEWVGWISSYDASTKYSQELQGRVTMTTDTSTSTAYMELRSLRSEDTAVYYCARGSPIYEHFNWFDPWGQGTLVTVSS
VL: EIVLTQSPATLSLSPGERATLSCRASQSVSSYLAWYQQKPGQAPRLLIYDSSNRATGIPARFSGSGSGTDFTLTISSLEPEDFAVYYCQQLSHHPLTFGGGTKVEIK
notes: Full-length IgG secreted by yeast and purified on Protein A; also called anti-PVRIG antibody ADI-56145 (full-length IgG obtained from Adimab)
Regarding B6, the binding result in [6] is on record as “no binding (tested: 100 nM)”. For the same molecule, the Kd is 2040 pM in experiment [1] and 623 pM in experiment [3].

B7: ADI-56145 Fab fragment (Fab, V domains shown)
VH: QVQLVQSGAEVKKPGASVKVSCKASGYTFTSYGISWVRQAPGQGLEWVGWISSYDASTKYSQELQGRVTMTTDTSTSTAYMELRSLRSEDTAVYYCARGSPIYEHFNWFDPWGQGTLVTVSS
VL: EIVLTQSPATLSLSPGERATLSCRASQSVSSYLAWYQQKPGQAPRLLIYDSSNRATGIPARFSGSGSGTDFTLTISSLEPEDFAVYYCQQLSHHPLTFGGGTKVEIK
notes: Fab made by papain digestion of the yeast full-length IgG, purified with Kappa Select; also called Fab of ADI-56145
As to B7, the Kd in experiment [4] came out at 758 pM; in experiment [5] it was 157000 pM.

B8: ADI-56145-G1LALA (antibody, human IgG1, kappa, L234A L235A, V domains shown)
VH: QVQLVQSGAEVKKPGASVKVSCKASGYTFTSYGISWVRQAPGQGLEWVGWISSYDASTKYSQELQGRVTMTTDTSTSTAYMELRSLRSEDTAVYYCARGSPIYEHFNWFDPWGQGTLVTVSS
VL: EIVLTQSPATLSLSPGERATLSCRASQSVSSYLAWYQQKPGQAPRLLIYDSSNRATGIPARFSGSGSGTDFTLTISSLEPEDFAVYYCQQLSHHPLTFGGGTKVEIKR
One may read the IC50 as the midpoint of a concentration-inhibition curve. One may read the EC50 as the concentration needed to bring the measured effect to its halfway point. Molecule B8 came in with an IC50 in experiment [7] of 1360 pM. For the same molecule, the EC50 in experiment [8] stood at 37600 pM; in experiment [9] it was 2280 pM.
